Results from patent US20260242419A1, “A CYCLIC PEPTIDE FOR TRAPPING INTERLEUKIN-1 BETA” (Merck Sharp & Dohme LLC, priority 2023, published 2026).
Non-standard residues stand in square brackets, D forms with d. dPro(4R-(4-pyridylmethyl)) = O=C(O)[C@H]1C[C@@H](Cc2ccncc2)CN1; Trp(βS-Me,4-F) = C[C@@H](c1c[nH]c2cccc(F)c12)[C@H](N)C(=O)O; Bip(4'-CONH2) = NC(=O)c1ccc(-c2ccc(C[C@H](N)C(=O)O)cc2)cc1; Bip(4'-COOH) = N[C@@H](Cc1ccc(-c2ccc(C(=O)O)cc2)cc1)C(=O)O; Ala(1-bicyclo(1.1.1)pentyl) = N[C@@H](CC12CC(C1)C2)C(=O)O; dPro(3S-(4-F-Bn)) = O=C(O)[C@@H]1NCC[C@@H]1Cc1ccc(F)cc1; Ala(pyrimidin-5-yl) = N[C@@H](Cc1cncnc1)C(=O)O; Phe(4-COOH) = N[C@@H](Cc1ccc(C(=O)O)cc1)C(=O)O; Pro(cis-4-F) = O=C(O)[C@@H]1C[C@H](F)CN1; Ala(4-THP) = N[C@@H](CC1CCOCC1)C(=O)O; cisHyp = O=C(O)[C@@H]1C[C@H](O)CN1; d(αMeN) = C[C@@](N)(CC(N)=O)C(=O)O; 4Pal = N[C@@H](Cc1ccncc1)C(=O)O; aThr = C[C@H](O)[C@H](N)C(=O)O; αMeD = C[C@](N)(CC(=O)O)C(=O)O; d(αMeS) = C[C@@](N)(CO)C(=O)O; Dab = NCC[C@H](N)C(=O)O; Aib = CC(C)(N)C(=O)O; Sar = CNCC(=O)O

B1: SEQ ID NO: 210 (peptide)
peptide: cyclo([Bip(4'-COOH)][4Pal][Phe(4-COOH)]G[cisHyp][Trp(βS-Me,4-F)][Aib]SW[αMeD][Ala(4-THP)]Q[Dab][Sar][dPro(4R-(4-pyridylmethyl))])
modifications: ring closure inferred; not fully specified (bridges); printed as Bip4CO2H-4Pal-Phe4COOH-G-Proc4OH-SbMeW4F-Aib-S-W-aMeD-AlaTHP4-Q-Dab-Sar-dProc4CH24Pal, cyclic (macrolactam)
B2: SEQ ID NO: 203 (peptide)
peptide: cyclo([Bip(4'-COOH)][Ala(1-bicyclo(1.1.1)pentyl)][Phe(4-COOH)]G[Pro(cis-4-F)][Trp(βS-Me,4-F)][Aib]SW[αMeD]VQ[Dab]G[dPro(4R-(4-pyridylmethyl))])
modifications: ring closure inferred; not fully specified (bridges); printed as Bip4CO2H-AlaPent-Phe4COOH-G-Proc4F-SbMeW4F-Aib-S-W-aMeD-V-Q-Dab-G-dProc4CH24Pal, cyclic (macrolactam)
B3: SEQ ID NO: 209 (peptide)
peptide: cyclo([Bip(4'-COOH)][4Pal][Phe(4-COOH)]G[cisHyp][Trp(βS-Me,4-F)][Aib]SW[αMeD][Ala(pyrimidin-5-yl)]Q[Dab][Sar][dPro(4R-(4-pyridylmethyl))])
modifications: ring closure inferred; not fully specified (bridges); printed as Bip4CO2H-4Pal-Phe4COOH-G-Proc4OH-SbMeW4F-Aib-S-W-aMeD-PyrimAla-Q-Dab-Sar-dProc4CH24Pal, cyclic (macrolactam)
B4: SEQ ID NO: 216 (peptide)
peptide: cyclo([Bip(4'-CONH2)][Ala(1-bicyclo(1.1.1)pentyl)][Phe(4-COOH)]G[Pro(cis-4-F)][Trp(βS-Me,4-F)][Aib]SW[d(αMeS)][Ala(4-THP)]Q[Dab]G[dPro(3S-(4-F-Bn))])
modifications: ring closure inferred; not fully specified (bridges); printed as Bip4CONH2-AlaPent-Phe4COOH-G-Proc4F-SbMeW4F-Aib-S-W-daMeS-AlaTHP4-Q-Dab-G-dProc3Bn4F, cyclic (macrolactam)
B5: SEQ ID NO: 208 (peptide)
peptide: cyclo([Bip(4'-COOH)][4Pal][Phe(4-COOH)]G[Pro(cis-4-F)][Trp(βS-Me,4-F)][Aib]SW[αMeD][Ala(4-THP)]Q[Dab][Sar][dPro(4R-(4-pyridylmethyl))])
modifications: ring closure inferred; not fully specified (bridges); printed as Bip4CO2H-4Pal-Phe4COOH-G-Proc4F-SbMeW4F-Aib-S-W-aMeD-AlaTHP4-Q-Dab-Sar-dProc4CH24Pal, cyclic (macrolactam)
B6: SEQ ID NO: 204 (peptide)
peptide: cyclo([Bip(4'-COOH)][Ala(1-bicyclo(1.1.1)pentyl)][Phe(4-COOH)]G[Pro(cis-4-F)][Trp(βS-Me,4-F)][Aib]SW[d(αMeS)][Ala(4-THP)]Q[Dab]G[dPro(4R-(4-pyridylmethyl))])
modifications: ring closure inferred; not fully specified (bridges); printed as Bip4CO2H-AlaPent-Phe4COOH-G-Proc4F-SbMeW4F-Aib-S-W-daMeS-AlaTHP4-Q-Dab-G-dProc4CH24Pal, cyclic (macrolactam)
B7: SEQ ID NO: 205 (peptide)
peptide: cyclo([Bip(4'-COOH)][4Pal][Phe(4-COOH)]G[Pro(cis-4-F)][Trp(βS-Me,4-F)][Aib]SW[Aib][Ala(pyrimidin-5-yl)]Q[Dab][Sar][dPro(4R-(4-pyridylmethyl))])
modifications: ring closure inferred; not fully specified (bridges); printed as Bip4CO2H-4Pal-Phe4COOH-G-Proc4F-SbMeW4F-Aib-S-W-Aib-PyrimAla-Q-Dab-Sar-dProc4CH24Pal, cyclic (macrolactam)
B8: SEQ ID NO: 207 (peptide)
peptide: cyclo([Bip(4'-COOH)][4Pal][Phe(4-COOH)]G[cisHyp][Trp(βS-Me,4-F)][Aib]SW[d(αMeS)][Ala(4-THP)]Q[Dab][Sar][dPro(4R-(4-pyridylmethyl))])
modifications: ring closure inferred; not fully specified (bridges); printed as Bip4CO2H-4Pal-Phe4COOH-G-Proc4OH-SbMeW4F-Aib-S-W-daMeS-AlaTHP4-Q-Dab-Sar-dProc4CH24Pal, cyclic (macrolactam)
B9: SEQ ID NO: 215 (peptide)
peptide: cyclo([Bip(4'-CONH2)][4Pal][Phe(4-COOH)]G[Pro(cis-4-F)][Trp(βS-Me,4-F)][Aib]SW[d(αMeS)][Ala(4-THP)]Q[Dab]G[dPro(4R-(4-pyridylmethyl))])
modifications: ring closure inferred; not fully specified (bridges); printed as Bip4CONH2-4Pal-Phe4COOH-G-Proc4F-SbMeW4F-Aib-S-W-daMeS-AlaTHP4-Q-Dab-G-dProc4CH24Pal, cyclic (macrolactam)
B10: SEQ ID NO: 217 (peptide)
peptide: cyclo([Bip(4'-CONH2)][Ala(1-bicyclo(1.1.1)pentyl)][Phe(4-COOH)]G[Pro(cis-4-F)][Trp(βS-Me,4-F)][Aib]SW[d(αMeN)][Ala(4-THP)]Q[Dab]G[dPro(3S-(4-F-Bn))])
modifications: ring closure inferred; not fully specified (bridges); printed as Bip4CONH2-AlaPent-Phe4COOH-G-Proc4F-SbMeW4F-Aib-S-W-daMeN-AlaTHP4-Q-Dab-G-dProc3Bn4F, cyclic (macrolactam)
B11: SEQ ID NO: 202 (peptide)
peptide: cyclo([Bip(4'-COOH)][Ala(1-bicyclo(1.1.1)pentyl)][Phe(4-COOH)]G[Pro(cis-4-F)][Trp(βS-Me,4-F)][Aib]SW[αMeD][aThr]Q[Dab]G[dPro(4R-(4-pyridylmethyl))])
modifications: ring closure inferred; not fully specified (bridges); printed as Bip4CO2H-AlaPent-Phe4COOH-G-Proc4F-SbMeW4F-Aib-S-W-aMeD-alT-Q-Dab-G-dProc4CH24Pal, cyclic (macrolactam)
B12: SEQ ID NO: 201 (peptide)
peptide: cyclo([Bip(4'-COOH)][4Pal][Phe(4-COOH)]G[cisHyp][Trp(βS-Me,4-F)][Aib]SW[αMeD][Ala(4-THP)]Q[Dab]G[dPro(4R-(4-pyridylmethyl))])
modifications: ring closure inferred; not fully specified (bridges); printed as Bip4CO2H-4Pal-Phe4COOH-G-Proc4OH-SbMeW4F-Aib-S-W-aMeD-AlaTHP4-Q-Dab-G-dProc4CH24Pal, cyclic (macrolactam)
B13: SEQ ID NO: 212 (peptide)
peptide: cyclo([Bip(4'-COOH)][4Pal][Phe(4-COOH)]G[cisHyp][Trp(βS-Me,4-F)][Aib]SW[Aib][Ala(4-THP)]Q[Dab]G[dPro(4R-(4-pyridylmethyl))])
modifications: ring closure inferred; not fully specified (bridges); printed as Bip4CO2H-4Pal-Phe4COOH-G-Proc4OH-SbMeW4F-Aib-S-W-Aib-AlaTHP4-Q-Dab-G-dProc4CH24Pal, cyclic (macrolactam)
B14: SEQ ID NO: 211 (peptide)
peptide: cyclo([Bip(4'-COOH)][4Pal][Phe(4-COOH)]G[Pro(cis-4-F)][Trp(βS-Me,4-F)][Aib]SW[Aib][Ala(4-THP)]Q[Dab]G[dPro(4R-(4-pyridylmethyl))])
modifications: ring closure inferred; not fully specified (bridges); printed as Bip4CO2H-4Pal-Phe4COOH-G-Proc4F-SbMeW4F-Aib-S-W-Aib-AlaTHP4-Q-Dab-G-dProc4CH24Pal, cyclic (macrolactam)
B15: SEQ ID NO: 206 (peptide)
peptide: cyclo([Bip(4'-COOH)][4Pal][Phe(4-COOH)]G[Pro(cis-4-F)][Trp(βS-Me,4-F)][Aib]SW[d(αMeS)][Ala(pyrimidin-5-yl)]Q[Dab][Sar][dPro(4R-(4-pyridylmethyl))])
modifications: ring closure inferred; not fully specified (bridges); printed as Bip4CO2H-4Pal-Phe4COOH-G-Proc4F-SbMeW4F-Aib-S-W-daMeS-PyrimAla-Q-Dab-Sar-dProc4CH24Pal, cyclic (macrolactam)
B16: SEQ ID NO: 200 (peptide)
peptide: cyclo([Bip(4'-COOH)][4Pal][Phe(4-COOH)]G[Pro(cis-4-F)][Trp(βS-Me,4-F)][Aib]SW[αMeD][Ala(4-THP)]Q[Dab]G[dPro(4R-(4-pyridylmethyl))])
modifications: ring closure inferred; not fully specified (bridges); printed as Bip4CO2H-4Pal-Phe4COOH-G-Proc4F-SbMeW4F-Aib-S-W-aMeD-AlaTHP4-Q-Dab-G-dProc4CH24Pal, cyclic (macrolactam)
B17: SEQ ID NO: 213 (peptide)
peptide: cyclo([Bip(4'-COOH)][4Pal][Phe(4-COOH)]G[cisHyp][Trp(βS-Me,4-F)][Aib]SW[d(αMeS)][Ala(4-THP)]Q[Dab]G[dPro(4R-(4-pyridylmethyl))])
modifications: ring closure inferred; not fully specified (bridges); printed as Bip4CO2H-4Pal-Phe4COOH-G-Proc4OH-SbMeW4F-Aib-S-W-daMeS-AlaTHP4-Q-Dab-G-dProc4CH24Pal, cyclic (macrolactam)

Biological target: Recombinant human IL-1β (BioLegend 579404) (human, UniProt P01584 117-269)
Assay: cell-based or functional assay

Binder	MRC5 IC50 [nM]
B1	0.029
B2	0.016
B3	0.034
B4	0.008
B5	0.015
B6	0.017
B7	0.028
B8	0.044
B9	0.01
B10	0.028
B11	0.013
B12	0.019
B13	0.029
B14	0.019
B15	0.022
B16	0.014
B17	0.021
